The experiment addresses soluble CD20^Avi. In words: SEC-MALS.

A word on the stoichiometry N: it is the number of molecules, sites or subunits per partner or assembly. With soluble CD20^Avi, the stoichiometry N was determined as 2.

For the origin of these results see article PMC11643043.
